Results as given in publication PMC3680381.

Tests used:
[1] = molecular target: Pf-WRS catalytic domain (aminoacylation and anticodon binding domains) (Plasmodium falciparum); test: SEC; gel filtration on Superdex200, 20 mM Tris, 100 mM NaCl, pH 7.5; oligomeric state from migration against markers (BSA, DTD)
[2] = molecular target: Plasmodium falciparum cytoplasmic tryptophanyl-tRNA synthetase, full length (Plasmodium falciparum); test: as above

stoichiometry N [1]	stoichiometry N [2]	Substance
2	–	Pf-WRS catalytic domain (aminoacylation and anticodon binding domains) (domain or fragment)
–	2	Plasmodium falciparum cytoplasmic tryptophanyl-tRNA synthetase, full length (enzyme)
